Measured values from IntAct's records for PubMed 21481780.

B1: Phosphotransferase RcsD (Escherichia coli (strain K12)), P39838 (parent)
chain: MRQKETTATTRFSLLPGSITRFFLLLIIVLLVTMGVMVQSAVNAWLKDKSYQIVDITHAIQKRVDNWRYVTWQIYDNIAATTSPSSGEGLQETRLKQDVYYLEKPRRKTEALIFGSHDNSTLEMTQRMSTYLDTLWGAENVPWSMYYLNGQDNSLVLISTLPLKDLTSGFKESTVSDIVDSRRAEMLQQANALDERESFSNMRRLAWQNGHYFTLRTTFNQPGHLATVVAFDLPINDLIPPGMPLDSFRLEPDATATGNNDNEKEGTDSVSIHFNSTKIEISSALNSTDMRLVWQVPYGTLLLDTLQNILLPLLLNIGLLALALFGYTTFRHFSSRSTENVPSTAVNNELRILRAINEEIVSLLPLGLLVHDQESNRTVISNKIADHLLPHLNLQNITTMAEQHQGIIQATINNELYEIRMFRSQVAPRTQIFIIRDQDREVLVNKKLKQAQRLYEKNQQGRMIFMKNIGDALKEPAQSLAESAAKLNAPESKQLANQADVLVRLVDEIQLANMLADDSWKSETVLFSVQDLIDEVVPSVLPAIKRKGLQLLINNHLKAHDMRRGDRDALRRILLLLMQYAVTSTQLGKITLEVDQDESSEDRLTFRILDTGEGVSIHEMDNLHFPFINQTQNDRYGKADPLAFWLSDQLARKLGGHLNIKTRDGLGTRYSVHIKMLAADPEVEEEEERLLDDVCVMVDVTSAEIRNIVTRQLENWGATCITPDERLISQDYDIFLTDNPSNLTASGLLLSDDESGVREIGPGQLCVNFNMSNAMQEAVLQLIEVQLAQEEVTESPLGGDENAQLHASGYYALFVDTVPDDVKRLYTEAATSDFAALAQTAHRLKGVFAMLNLVPGKQLCETLEHLIREKDVPGIEKYISDIDSYVKSLL
partner: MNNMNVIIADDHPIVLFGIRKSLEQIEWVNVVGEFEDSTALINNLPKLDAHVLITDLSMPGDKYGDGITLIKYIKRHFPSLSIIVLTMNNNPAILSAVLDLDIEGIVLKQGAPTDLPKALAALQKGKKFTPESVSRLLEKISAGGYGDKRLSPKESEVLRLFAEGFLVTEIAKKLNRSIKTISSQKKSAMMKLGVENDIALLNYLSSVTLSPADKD

Variants of: B1
Settings: with rcsb_ecoli rcsB

Variant	effect of a mutation on the interaction
N715A;Q776A;L780A	decreasing interaction
